Assay results taken from IntAct's records for PubMed 22228096.

Target: dnm1l_human DNM1L (UniProt O00429)
Sequence (O00429 whole entry): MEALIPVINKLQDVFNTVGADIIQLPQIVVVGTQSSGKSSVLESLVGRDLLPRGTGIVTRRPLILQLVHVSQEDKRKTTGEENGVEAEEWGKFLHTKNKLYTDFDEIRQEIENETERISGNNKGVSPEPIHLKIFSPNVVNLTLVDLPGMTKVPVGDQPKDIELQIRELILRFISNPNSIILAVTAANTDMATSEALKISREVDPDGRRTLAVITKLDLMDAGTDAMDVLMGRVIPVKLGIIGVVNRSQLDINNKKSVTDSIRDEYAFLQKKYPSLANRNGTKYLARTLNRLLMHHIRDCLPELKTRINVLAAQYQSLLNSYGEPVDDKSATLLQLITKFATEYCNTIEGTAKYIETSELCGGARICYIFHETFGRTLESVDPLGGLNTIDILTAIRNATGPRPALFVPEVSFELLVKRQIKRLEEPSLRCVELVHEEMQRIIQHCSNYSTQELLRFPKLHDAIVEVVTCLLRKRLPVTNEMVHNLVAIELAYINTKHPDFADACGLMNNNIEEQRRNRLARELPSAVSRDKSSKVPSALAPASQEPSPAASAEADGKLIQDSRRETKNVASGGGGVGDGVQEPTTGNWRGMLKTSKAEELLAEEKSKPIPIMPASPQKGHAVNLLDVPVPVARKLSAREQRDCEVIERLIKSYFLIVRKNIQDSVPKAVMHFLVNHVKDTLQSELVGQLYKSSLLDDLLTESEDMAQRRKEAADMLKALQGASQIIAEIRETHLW

Row | Substance | effect of a mutation on the interaction
1 | Leucine-rich repeat serine/threonine-protein kinase 2 (Homo sapiens), Q5S007 G2019S | increasing interaction
2 | Leucine-rich repeat serine/threonine-protein kinase 2 (Homo sapiens), Q5S007 D1994A | decreasing interaction
3 | Leucine-rich repeat serine/threonine-protein kinase 2 (Homo sapiens), Q5S007 K1347A | decreasing interaction
4 | Leucine-rich repeat serine/threonine-protein kinase 2 (Homo sapiens), Q5S007 R1441C | increasing interaction
